In patent publication USRE48267E1, “Variants of C-type natriuretic peptide” (priority 2009, dated 2020):
Where a SMILES comes first, the peptide text is derived from it. Bridges are numbered along the chain shown (N, C = ends). Where no end group is shown, it is not given here. PEO12 = PEO12, 0.6 kDa, monodispersed; PEO24 = PEO24, 1.2 kDa, monodispersed

T1: NPR-B (natriuretic peptide receptor B), murine, expressed endogenously on NIH3T3 cells (murine, UniProt Q6VVW5 17-1047)
T1 sequence (looked up): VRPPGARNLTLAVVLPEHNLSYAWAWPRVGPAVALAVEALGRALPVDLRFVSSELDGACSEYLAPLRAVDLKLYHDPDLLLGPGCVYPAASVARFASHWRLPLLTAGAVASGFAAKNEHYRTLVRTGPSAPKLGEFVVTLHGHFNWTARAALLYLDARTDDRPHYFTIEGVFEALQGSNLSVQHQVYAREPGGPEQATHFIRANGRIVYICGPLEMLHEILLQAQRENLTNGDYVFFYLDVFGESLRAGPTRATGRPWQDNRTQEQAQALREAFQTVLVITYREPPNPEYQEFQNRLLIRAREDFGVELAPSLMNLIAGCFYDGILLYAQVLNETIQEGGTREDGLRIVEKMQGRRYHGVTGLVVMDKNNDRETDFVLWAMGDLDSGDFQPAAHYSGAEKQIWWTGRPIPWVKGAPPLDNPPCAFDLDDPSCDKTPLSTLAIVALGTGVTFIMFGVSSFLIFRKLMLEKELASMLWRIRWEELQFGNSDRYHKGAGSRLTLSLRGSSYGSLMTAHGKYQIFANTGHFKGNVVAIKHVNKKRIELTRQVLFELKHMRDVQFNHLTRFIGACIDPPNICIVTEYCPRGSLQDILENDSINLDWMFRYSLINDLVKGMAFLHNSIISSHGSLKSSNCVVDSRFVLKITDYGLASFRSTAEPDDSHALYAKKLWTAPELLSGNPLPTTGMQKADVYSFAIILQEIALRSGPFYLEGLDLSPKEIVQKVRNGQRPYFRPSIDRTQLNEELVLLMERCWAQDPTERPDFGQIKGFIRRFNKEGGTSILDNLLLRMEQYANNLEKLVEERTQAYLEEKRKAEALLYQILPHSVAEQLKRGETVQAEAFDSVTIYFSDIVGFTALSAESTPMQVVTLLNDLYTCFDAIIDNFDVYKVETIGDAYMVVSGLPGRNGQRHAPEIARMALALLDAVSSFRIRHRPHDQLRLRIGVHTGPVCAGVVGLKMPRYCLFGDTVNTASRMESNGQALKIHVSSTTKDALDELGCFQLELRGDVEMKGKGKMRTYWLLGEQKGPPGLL


molecular target: T1, NPR-B (natriuretic peptide receptor B), …; test: cell-based or functional assay; conditions: not given

Molecule	cGMP response rel. to 1 uM CNP22; 10 nM peptide, NIH3T3 cells	cGMP response rel. to 1 uM CNP22; 1 uM peptide, NIH3T3 cells
PEO24-GANRRGLSRGCFGLKLDRIGSMSGLGC (ends and bridges not checked) [PEO24-GANRR-CNP22(K4R)]	28 rel. to 1 uM CNP22 (100)	82 rel. to 1 uM CNP22 (100)
PEG2K-CFGLKLDRIGSMSGLGC (ends and bridges not checked) [PEG2K-CNP17]	5 rel. to 1 uM CNP22 (100)	50 rel. to 1 uM CNP22 (100)
PEO12-RGLSRGCFGLKLDRIGSMSGLGC (ends and bridges not checked) [PEO12-R-CNP22, K4R]	23 rel. to 1 uM CNP22 (100)	93 rel. to 1 uM CNP22 (100)
PEO24-GANQQGLSRGCFGLKLDRIGSMSGLGC (ends and bridges not checked) [PEO24-GANQQ-CNP22, K4R]	16 rel. to 1 uM CNP22 (100)	73 rel. to 1 uM CNP22 (100)
PEO12-GANSSGLSRGCFGLKLDRIGSMSGLGC (ends and bridges not checked) [PEO12-GANSS-CNP22, K4R]	8 rel. to 1 uM CNP22 (100)	52 rel. to 1 uM CNP22 (100)
PEO12-GLSRGCFGLKLDRIGSMSGLGC (ends and bridges not checked) [PEO12-CNP22, K4R]	13 rel. to 1 uM CNP22 (100)	44 rel. to 1 uM CNP22 (100)
PEO12-GANRRGLSRGCFGLKLDRIGSMSGLGC (ends and bridges not checked) [PEO12-GANRR-CNP22(K4R)]	40 rel. to 1 uM CNP22 (100)	99 rel. to 1 uM CNP22 (100)
PEG2K-GANRRGLSRGCFGLKLDRIGSMSGLGC (ends and bridges not checked) [PEG2K-GANRR-CNP22, K4R]	15 rel. to 1 uM CNP22 (100)	45 rel. to 1 uM CNP22 (100)
PEO12-GLSKGCFGLKLDRIGSMSGLGC (ends and bridges not checked) [PEO12-CNP22]	12 rel. to 1 uM CNP22 (100)	57 rel. to 1 uM CNP22 (100)
PEO24-GLSRGCFGLKLDRIGSMSGLGC (ends and bridges not checked) [PEO24-CNP22, K4R]	15 rel. to 1 uM CNP22 (100)	56 rel. to 1 uM CNP22 (100)
{PEO4‑(PEO12)3 (branched)}-GLSKGCFGLKLDRIGSMSGLGC (ends and bridges not checked) [PEO4-(PEO12)3 (branched)-CNP22]	17 rel. to 1 uM CNP22 (100)	52 rel. to 1 uM CNP22 (100)
{PEG 1 kDa}-GLSKGCFGLKLDRIGSMSGLGC (ends and bridges not checked; also: PEG polydispersed) [PEG1K-CNP22]	15 rel. to 1 uM CNP22 (100)	68 rel. to 1 uM CNP22 (100)
PEO24-GLSKGCFGLKLDRIGSMSGLGC (ends and bridges not checked) [PEO24-CNP22]	8 rel. to 1 uM CNP22 (100)	46 rel. to 1 uM CNP22 (100)
GLSKGCFGLKLDRIGSMSGLGC (not fully specified (N-terminus); ends and bridges not checked) [(PEO12)-Biotin-CNP22]	19 rel. to 1 uM CNP22 (100)	81 rel. to 1 uM CNP22 (100)
PEO12-ERGLSRGCFGLKLDRIGSMSGLGC (ends and bridges not checked) [PEO12-ER-CNP22, K4R]	20 rel. to 1 uM CNP22 (100)	92 rel. to 1 uM CNP22 (100)
PEO24-GANSSGLSRGCFGLKLDRIGSMSGLGC (ends and bridges not checked) [PEO24-GANSS-CNP22, K4R]	8 rel. to 1 uM CNP22 (100)	46 rel. to 1 uM CNP22 (100)
PEO24-RGLSRGCFGLKLDRIGSMSGLGC (ends and bridges not checked) [PEO24-R-CNP22, K4R]	15 rel. to 1 uM CNP22 (100)	75 rel. to 1 uM CNP22 (100)
PEO24-ERGLSRGCFGLKLDRIGSMSGLGC (ends and bridges not checked) [PEO24-ER-CNP22, K4R]	6 rel. to 1 uM CNP22 (100)	60 rel. to 1 uM CNP22 (100)
PEO12-GANQQGLSRGCFGLKLDRIGSMSGLGC (ends and bridges not checked) [PEO12-GANQQ-CNP22, K4R]	30 rel. to 1 uM CNP22 (100)	78 rel. to 1 uM CNP22 (100)
PEG1K-GANRRGLSRGCFGLKLDRIGSMSGLGC (ends and bridges not checked) [PEG1K-GANRR-CNP22(K4R)]	15 rel. to 1 uM CNP22 (100)	56 rel. to 1 uM CNP22 (100)

molecular target: Recombinant human NEP (Homo sapiens, UniProt P08473); test: in vitro NEP cleavage assay (disappearance of non-cleaved CNP variant); conditions: not given
Experimental: To determine the effects of amino acid substitutions, amino acid extensions, backbone modifications, side chain modifications and PEGylation on the susceptibility of CNP variants to neutral endopeptidase (NEP) cleavage, peptide cleavage assays were carried out using an in vitro assay that monitored disappearance of the non-cleaved CNP variant.
Recombinant human NEP (1 ug/mL final concentration) was added to 100 uM CNP variant diluted in 0.1 M Tris, pH 7. The reaction mixture was incubated at 37° C. for various periods of time, and the reaction was quenched with EDTA (10 mM final) followed by heat denaturation. The reaction mixture was reduced and then the reaction products were analyzed using HPLC and mass spectroscopy. The half-life of the CNP variant was calculated based on the disappearance of intact CNP variant over time.

Recombinant human NEP, sequence (P08473 whole entry): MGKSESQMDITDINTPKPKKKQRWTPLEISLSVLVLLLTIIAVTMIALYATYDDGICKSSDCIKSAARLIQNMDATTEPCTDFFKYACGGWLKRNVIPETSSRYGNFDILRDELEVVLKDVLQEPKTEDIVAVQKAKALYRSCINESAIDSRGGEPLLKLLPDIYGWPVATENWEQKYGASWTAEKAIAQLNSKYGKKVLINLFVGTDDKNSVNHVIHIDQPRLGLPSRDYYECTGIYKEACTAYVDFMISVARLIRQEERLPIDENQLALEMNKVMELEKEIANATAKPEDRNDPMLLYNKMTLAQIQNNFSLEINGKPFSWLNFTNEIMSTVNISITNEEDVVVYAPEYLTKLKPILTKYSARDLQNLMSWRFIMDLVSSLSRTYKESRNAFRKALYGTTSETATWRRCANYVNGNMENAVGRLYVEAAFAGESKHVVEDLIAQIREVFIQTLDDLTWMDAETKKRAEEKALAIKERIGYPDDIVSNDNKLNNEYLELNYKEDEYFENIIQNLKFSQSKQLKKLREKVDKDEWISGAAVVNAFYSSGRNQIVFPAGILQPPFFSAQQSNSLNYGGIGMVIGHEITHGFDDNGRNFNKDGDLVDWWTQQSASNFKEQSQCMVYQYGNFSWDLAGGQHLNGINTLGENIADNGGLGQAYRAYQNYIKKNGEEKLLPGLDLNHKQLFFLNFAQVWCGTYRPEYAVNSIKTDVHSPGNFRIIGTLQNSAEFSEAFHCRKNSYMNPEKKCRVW

Molecule	resistance to NEP cleavage (in words)
PEG5K-CNP22: CNP22 conjugated at the N-terminus to polydispersed PEG5K	resistant to NEP degradation over the assay period of 160 minutes
CC[C@H](C)[C@@H]1NC(=O)[C@H](CCCNC(=N)N)NC(=O)[C@H](CC(=O)O)NC(=O)[C@H](CC(C)C)NC(=O)[C@H](CCCCN)NC(=O)[C@H](CC(C)C)NC(=O)CNC(=O)[C@H](Cc2ccccc2)NC(=O)[C@@H](NC(=O)CNC(=O)[C@H](CCCNC(=N)N)NC(=O)[C@H](CO)NC(=O)[C@H](CC(C)C)NC(=O)CNC(=O)[C@H](CCCNC(=N)N)NC(=O)[C@H](CCCNC(=N)N)NC(=O)[C@H](CC(N)=O)NC(=O)[C@H](C)NC(=O)CN)CSSC[C@@H](C(=O)O)NC(=O)CNC(=O)[C@H](CC(C)C)NC(=O)CNC(=O)[C@H](CO)NC(=O)[C@H](CCSC)NC(=O)[C@H](CO)NC(=O)CNC1=O [Analog AY] (H-GANRRGLSRGCFGLKLDRIGSMSGLGC-OH; disulfide 11-27)	same lability to NEP hydrolysis as CNP22

same assay, conditions: pH 7

Molecule	NEP Cleavage (t1/2, min)
PEG5K-CNP22: CNP22 conjugated at the N-terminus to polydispersed PEG5K	>>160 min
PEG1K-CNP22: CNP22 conjugated at the N-terminus to polydispersed PEG1K	>160 min
PEG20K-CNP22: CNP22 conjugated at the N-terminus to polydispersed PEG20K	>>160 min
